This note sets out measurements from the supplement of paper PMC7877785.

± gives the uncertainty stated by the source.

The nature of this series: self-splicing fitness, log relative to wild type (ln ratio); higher = more splicing; Tetrahymena group I intron in knt gene, E. coli kanamycin selection, DiMSum; sequences stand for … in CUCUCU…GGAGGGAAAAGUUAUCAGGCAUGCACCUGGUAGCUAGUCUUUAAACCAAUAGAUUGCAUCGGUUUAAAAGGCAAGACCGUCAAAUUGCGGGAAAGGGGUCAACAGCCGUUCAGUACCAAGUCUCAGGGGAAACUUUGAGAUGGCCUUGCAAAGGGUAUGGUAAUAAGCUGACGGACAUGGUCCUAACCACGCAGCCAAGUCCUAAGUCAACAGAUCUUCUGUUGAUAUGGAUGCAGUUCACAGACUAAAUGUCGGUCGGGGAAGAUGUAUUCUUCUCAUAAGAUAUAGUCGGACCUCUCCUUAAUGGGAGCUAGCGGAUGAAGUGAUGCAACACUGGAGCCGCUGGGAACUAAUUUGUAUGCGAAAGUAUAUUGAUUAGUUUUGGAGUACUCGUGGUCG
Summed up: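 Six replicate transformations of E. coli BL21(DE3) with a pET-22b(+) library were grown overnight at 37°C or 30°C. The library randomised all eight P1ex-region intron nucleotides, the intron lying in the knt kanamycin-resistance gene, and plates were LB agar with or without 25 μg/mL kanamycin plus 100 μg/mL carbenicillin, 50 μM IPTG and 0.2% rhamnose. Pooled colonies were amplicon-sequenced on an Illumina HiSeq 2500, and fitness is the DiMSum error-weighted combination of wild-type-normalised replicate fold changes, kanamycin versus none.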

As for AUUAAGCAAUAUUACGGAAU, the “self-splicing fitness (ln)” value (30 °C) was -1.3 ± 0.14 and the “self-splicing fitness (ln)” value (37 °C) is -1.3 ± 0.18.

With UGUCAGCAAUAUUACGUCUC, the “self-splicing fitness (ln)” value by setting is: (30 °C) -2.3 ± 0.15; (37 °C) -1.86 ± 0.22.

In the case of CUGUAGCAAUAUUACGAGAU, the “self-splicing fitness (ln)” value is, setting by setting: (30 °C) -3.86 ± 0.16; (37 °C) -2.21 ± 0.15.

Take UUCUAGCAAUAUUACGGCAA: the “self-splicing fitness (ln)” value was determined as 0.293 ± 0.1 (30 °C) and 0.334 ± 0.11 (37 °C).

Turning to CCCGAGCAAUAUUACGGAUG, the “self-splicing fitness (ln)” value by setting is: (30 °C) -1.67 ± 0.091; (37 °C) -1.35 ± 0.13.

In the case of CGAGAGCAAUAUUACGAAGU, the “self-splicing fitness (ln)” value (37 °C) was -3.51 ± 0.39.

Take AAUUAGCAAUAUUACGCCCG: the “self-splicing fitness (ln)” value (30 °C) was -1.04 ± 0.18 and the “self-splicing fitness (ln)” value (37 °C) turned out to be 0.376 ± 0.28.

In the case of UAUAAGCAAUAUUACGUCUA, the “self-splicing fitness (ln)” value is 0.561 ± 0.077 (30 °C) and 0.494 ± 0.1 (37 °C).

As for CAGGAGCAAUAUUACGCAAU, the “self-splicing fitness (ln)” value (37 °C) was -1.35 ± 0.27.

Turning to GCGGAGCAAUAUUACGACUC, the “self-splicing fitness (ln)” value reads like this: (30 °C) -2.06 ± 0.25; (37 °C) -0.372 ± 0.34.

On to CUGGAGCAAUAUUACGCUUA, for which the “self-splicing fitness (ln)” value (30 °C) was -2.59 ± 0.45 and the “self-splicing fitness (ln)” value (37 °C) is -2.32 ± 0.35.

GGCAAGCAAUAUUACGUUAA: the “self-splicing fitness (ln)” value is -1.09 ± 0.1 (30 °C) and -0.115 ± 0.1 (37 °C).

Turning to CGGUAGCAAUAUUACGUUUA, the “self-splicing fitness (ln)” value was -3.46 ± 0.2 (30 °C) and -2.03 ± 0.13 (37 °C).

Take GAAUAGCAAUAUUACGUGGG: the “self-splicing fitness (ln)” value by setting is: (30 °C) -3.86 ± 0.21; (37 °C) -2.81 ± 0.19.

For CCUCAGCAAUAUUACGCUGC, the “self-splicing fitness (ln)” value (30 °C) is -3.53 ± 0.21 and the “self-splicing fitness (ln)” value (37 °C) is -1.69 ± 0.24.

With AUGAAGCAAUAUUACGGUCG, the “self-splicing fitness (ln)” value (30 °C) is 0.0254 ± 0.086 and the “self-splicing fitness (ln)” value (37 °C) was found to be 0.299 ± 0.1.

For CGACAGCAAUAUUACGUUGC, the “self-splicing fitness (ln)” value (30 °C) was -3.9 ± 0.37 and the “self-splicing fitness (ln)” value (37 °C) was -2.35 ± 0.36.

Consider UGCUAGCAAUAUUACGGCAC, for which the “self-splicing fitness (ln)” value by setting is: (30 °C) -3.7 ± 0.42; (37 °C) -2.19 ± 0.39.

Take ACGCAGCAAUAUUACGGCAU: the “self-splicing fitness (ln)” value by setting is: (30 °C) -0.55 ± 0.059; (37 °C) 0.0845 ± 0.072.

For the sequence AAUAAGCAAUAUUACGUCUU, the “self-splicing fitness (ln)” value (30 °C) stood at 0.0603 ± 0.06 and the “self-splicing fitness (ln)” value (37 °C) was -0.0919 ± 0.075.

With AGAAAGCAAUAUUACGGAUU, the “self-splicing fitness (ln)” value was -2.21 ± 0.14 (30 °C) and -0.867 ± 0.16 (37 °C).

On to ACAAAGCAAUAUUACGCCCC, for which the “self-splicing fitness (ln)” value is -0.67 ± 0.27 (30 °C) and -0.241 ± 0.26 (37 °C).

As for AUAUAGCAAUAUUACGACGU, the “self-splicing fitness (ln)” value is, setting by setting: (30 °C) 0.51 ± 0.13; (37 °C) 0.433 ± 0.17.

As for AACGAGCAAUAUUACGUUAC, the “self-splicing fitness (ln)” value by setting is: (30 °C) -3.45 ± 0.29; (37 °C) -0.155 ± 0.15.

UACGAGCAAUAUUACGGGCC: the “self-splicing fitness (ln)” value (37 °C) was -3.34 ± 0.28.

UUCCAGCAAUAUUACGGGAA: the “self-splicing fitness (ln)” value reads like this: (30 °C) -2.87 ± 0.35; (37 °C) -2.84 ± 0.34.

With GUAGAGCAAUAUUACGGUAA, the “self-splicing fitness (ln)” value was -1.74 ± 0.15 (30 °C) and -1.3 ± 0.19 (37 °C).

For AGCCAGCAAUAUUACGUCCA, the “self-splicing fitness (ln)” value by setting is: (30 °C) -2.69 ± 0.18; (37 °C) -1.99 ± 0.2.

As for AUUCAGCAAUAUUACGCGCC, the “self-splicing fitness (ln)” value (30 °C) is -1.17 ± 0.15 and the “self-splicing fitness (ln)” value (37 °C) was determined as 0.194 ± 0.21.

UGCAAGCAAUAUUACGUCAG: the “self-splicing fitness (ln)” value (30 °C) is -1.98 ± 0.088 and the “self-splicing fitness (ln)” value (37 °C) was -0.64 ± 0.087.

Turning to AUCGAGCAAUAUUACGAUCU, the “self-splicing fitness (ln)” value (30 °C) is -1.58 ± 0.086 and the “self-splicing fitness (ln)” value (37 °C) is -0.957 ± 0.08.

Consider ACUAAGCAAUAUUACGGCUU, for which the “self-splicing fitness (ln)” value was -2.2 ± 0.1 (30 °C) and -1.27 ± 0.12 (37 °C).

For CGUCAGCAAUAUUACGAGCU, the “self-splicing fitness (ln)” value is -3.17 ± 0.13 (30 °C) and -1.45 ± 0.13 (37 °C).

Consider CACGAGCAAUAUUACGCCUA, for which, for the setting “37 °C”, the “self-splicing fitness (ln)” value was -2.24 ± 0.45.

Take UGAUAGCAAUAUUACGCGAC: the “self-splicing fitness (ln)” value (30 °C) is -3.55 ± 0.28.

In the case of GGGUAGCAAUAUUACGGGGU, the “self-splicing fitness (ln)” value is -3.33 ± 0.32 (30 °C) and -3.06 ± 0.47 (37 °C).

For the sequence GCGCAGCAAUAUUACGUUUU, the “self-splicing fitness (ln)” value by setting is: (30 °C) -0.735 ± 0.049; (37 °C) -0.277 ± 0.063.

AAUGAGCAAUAUUACGCAAA: the “self-splicing fitness (ln)” value (37 °C) is -2.46 ± 0.48.

On to ACCGAGCAAUAUUACGAGGU, for which the “self-splicing fitness (ln)” value was -2.42 ± 0.23 (30 °C) and -0.758 ± 0.2 (37 °C).

As for CAGUAGCAAUAUUACGAUCU, the “self-splicing fitness (ln)” value (30 °C) was -1.52 ± 0.15 and the “self-splicing fitness (ln)” value (37 °C) is -1.15 ± 0.19.
